Test results published in the nanobody polyreactivity screen of Harvey et al. (2022).

Assay: yeast display, Sf9 membrane polyspecificity reagent, FACS + sequencing; frameworks hold sequencing errors
Summary of the method: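 After 36–48 hours of galactose induction, yeast (Saccharomyces cerevisiae BJ5465) displaying a synthetic nanobody library were stained at 4 °C for 1 hour with 10% biotinylated, detergent-solubilized Sf9 membrane reagent. Streptavidin microbeads enriched the stained cells before FACS sorting into low and high (top ~1%) gates on anti-HA and streptavidin fluorescence. Each clone's polyreactivity label reflects its gate of origin.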

Sequence | polyreactivity (PSR sort gate)
QDQLVESGGGLVQAGCSLRLSCAASGSTFRTYAMGWYRQAPGKERDLVAAIRRGGSTKYADSVKGRFTISRDNAKYTVYLQINSLIPEDTELYYCAAVTYVPRSTNGISLYDYWGQGTQVTVSS | high polyreactivity
QVQLVESGGGLVQAGGSLRLSCAASGRTFKYYAMGWYRQAPGKERELVAAISYNGGSTFYADSVKGRFTFSRDNAKNTVYLQMNSLKPEDTAVYYCAAGPRGTGKYYWGQGTQVTVSS | high polyreactivity
QVQLVESGGGLVQAGGSLRLSCDASGRIIAFYVMGWYRQAPGKERELVAAITSGGNTNYADSVKGRFTISRDNAKNTVYLQMNSLKPEDTAVYYCAVPVLTYVSDYYWGQGTQVTVSS | low polyreactivity
QDQLVESRVGLVQAGGSLRLSCAASGMIIGIYDMGWYRQAPGKERELVAAIRRSGGSTYYADSVKGRFTISRDNAKNTVYLQMYSLKPEDTAAYYCATDAWYYSQTNHDYWGQGTHVTVSS | low polyreactivity
QVQLVESGGGLVQAGGSLSLSCAASGSTFGDYAMGWYRQAPGKERELVAAITSSGGRTFYADSVKGRFTISRDNAKNTVYLQMNSLKPEDHAVYYCAAEFTDPPSEYEYWGQGTQVTVSS | low polyreactivity
QVHLVESGGGLVQAGGSLRLSCAASGRIFNWYVMGWYRQAPGKERELVAAITSGGITKYADSVKGRFTISRDNAKNTVYLQMNSLKPEDTAVYYCAAYYRRYDYDYWGQGSQVTVSS | high polyreactivity
QVQLVESGGGLVQAGGSLRLSCAASGSIFDYYTMGWYRQAPGKERELVAAISWSGGSTYYADSVKGRFTISRDNAKNTVYLQMNSLKPEDTAVYYCNAVGYSRYTVWSYYYWGQGTQVTVSS | high polyreactivity
QVQLVESGGGLVQAGGSLRLSCAASGSIVVVYDKGWYRQAPGKERELVAAISRRGGNTYYADSVKGRFTISRDNAKNTVYLQMNSLKPEDTAVYYCNAVRTRKAFDYWGQGTQVTVSS | low polyreactivity
QVQLVESGGGLVQAGGSLRLSCAASGRIFRRYAMGWYRQAPGKEREFVAAISYGGGSTYYADSVKGRFTISRDNAKYTVSLQMNSLTPEDTAVYYCNADVPKSLLLYYPWGYGYWGQGTQVTVSS | low polyreactivity
QLQLVESGRGLVQAGGSLRLSCAASGSIFYSNAKGWYRQATGKERELVATITWSGGRTYYADSVKGRFTISRDNGKNSVYLQMNRLKPEDTAVDYCAVVDRHQPYGRQLDYWGQGTQVTVSS | low polyreactivity
QQQLHESGGGLVQAGGSLRLSCAASGSISQAWYMGWYRQAPGKERELVAAINVGAITYYADIVKGRFSISRDNAKNTVFLPMNSLTPEDTAVYYCAVDQYSEAYYDYWGQGTQATVSS | high polyreactivity
QVQLVESGGGLVQAGGSLRLSCAASGYILPKNTMGWYRQAPGKERELVAAISWSGGSTFYADSVKGRFTISRDNAKNTVYLQMNSLKPEDTAVYYCAADRYWSWYYRYDYWGQGTQVTVSS | low polyreactivity
QVQLVESGGGLVQAGGSLRLSCAASGSIFYYNAMGWYRQAPGKERELVAAMSWSGGSTYDADSVKGRFTISRDNAKHTVYLQMNSLKPEDTAVYYCRYYRRDEMDYWGQGTQVTVSS | high polyreactivity
QVQLVESWGGLVQAGGSLRLSCAASGFTFYGYAMGWYRQAPGKERELVAAISRRSSSTYYADSVKGRFTISRDNAKNTVYLQMNSLKPEDTAVYYCNTVFQLSGYAAGVDYWGQGTQVTVSS | high polyreactivity
QVQLVESGGGLVQAGGRLRLSCAASGSIFNSYAMGWYRQAPGTEREFVASIPKSGGTTYYADSVKGRFTISRDNAKNTVYLQMNSLKPEDTAVYYCAADWYRSSWTYNYWGQGTQVTLSS | low polyreactivity
QDQLVESGGGLVQAGGSHRLSCAASGSTFGVNDMGWYRQAPGKERELVARITGGGSTYYADSVKGRFTISRDNAKNTVYLQMNSLKPEDTAVYYCNAAFWAPQATGYYYWGQGTQVTVSS | low polyreactivity
QVQLVESGGGLVQAGGSLRLSCAASGRTFDIYAMGWYRPAPGKERELVAAISSGGSTYYADSVKGRFTISRDNAKNTVYLQMNSLKPEDTAVYYCAVRWYDQVSRRGIGYYWGQGTQVTVSS | low polyreactivity
QVHLVESGGGLFQAGGSLRLSCAASGRTFYYNAMGWYRQAPGKEREFVAAITWSGTRTYYADSVKGRFTISRDNAKNTVYLQMNSLKPEDTAVYYCNARAGSGSRFGYWGEGTQVTVSS | high polyreactivity
QVQLVESGGGLVQAGGSLRLSCAASGRTFSAYTMGWYRQAPGKERELVAAITSGTSTYYADSVKGRFTISRDNAKNTVYLQMNSLKPEDTAVYYCNARDSGRWWHIGQSGEDYWGQGTQVTVSS | low polyreactivity
QVQLLESGGGFVQAGGSLRLSCAASGQTFHGNTMGWYRQAPGKERELVAAISFDGGNTYADSVKGRFTKSRDNAKTSVYLHMNSLKPEDSAVYYDYWGPGTQVTVSS | low polyreactivity
QVQLVESGGGLVQAGGSLRLSCAASGLTFGSYAMGWYRQAPGKERELVAAISSRGGTTYYADSVKGRFTISRDNAKNTVYLQMNSLKPEDTAVYYCAARSRRYSYDNLGHWGQGTQVTVSS | high polyreactivity
QVQLVESGGGLVQAGGSLRLSCAASGFIFRYYTMRWYRQAPGKERELVAVITSGGTTYYADSVKGRFTISRDNAMNTVYLQMNSLKPEDTAVSYCAADYRPRLYGVGVDYWGQGTQVTVSS | low polyreactivity
